Here are results for six sequences from the supplement of paper PMC5998384.

The subject of data set [1] is HeLa Kyoto. The experiment in a line: thermal stability score vs G1/S (z-score of summed log2 fold changes over temperatures); higher = more thermally stable than in G1/S.
For data set [2], the system named is HeLa Kyoto. Put plainly: solubility in G1/S (NP-40 vs SDS abundance) (log2 ratio); higher = more soluble. The note with it: cell cycle stage: G1/S.
The test system of data set [3] is HeLa Kyoto. The experiment in a line: solubility change mitosis vs G1/S (difference of NP-40 vs SDS log2 ratios) (log2 ratio difference); higher = more soluble in mitosis.
Data set [4] deals with HeLa Kyoto. Put plainly: melting temperature (median over replicates), in situ; higher = more thermally stable.
Setting [5] is: cell cycle stage: early G1 (4.5 h after nocodazole release).
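For melting temperature (median over replicates), in situ in this document: HeLa Kyoto cells synchronized by double thymidine or nocodazole block, proteins quantified by TMT10plex mass spectrometry, three independent biological replicates.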
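For solubility change mitosis vs G1/S (difference of NP-40 vs SDS log2 ratios) in this document: synchronized HeLa Kyoto cells (double thymidine block for G1/S, nocodazole release for mitosis), protein amounts in NP-40 versus SDS lysates quantified by mass spectrometry, three biological replicates.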
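For solubility in G1/S (NP-40 vs SDS abundance) in this document: HeLa Kyoto cells arrested at G1/S by double thymidine block, proteins quantified by TMT10plex mass spectrometry in mild NP-40 versus SDS extracts, three biological replicates.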
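For thermal stability score vs G1/S (z-score of summed log2 fold changes over temperatures) in this document: synchronized HeLa Kyoto cells, proteins quantified by TMT10plex mass spectrometry, three biological replicates, mitosis taken 0.5 h after nocodazole release, G1/S directly after double thymidine block.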

For the sequence “MSETVICSSRATVMLYDDGNKRWLPAGTGPQAFSRVQIYHNPTANSFRVVGRKMQPDQQVVINCAIVRGVKYNQATPNFHQWRDARQVWGLNFGSKEDAAQFAAGMASALEALEGGGPPPPPALPTWSVPNGPSPEEVEQQKRQQPGPSEHIERRVSNAGGPPAPPAGGPPPPPGPPPPPGPPPPPGLPPSGVPAAAHGAGGGPPPAPPLPAAQGPGGGGAGAPGLAAAIAGAKLRKVSKQEEASGGPTAPKAESGRSGGGGLMEEMNAMLARRRKATQVGEKTPKDESANQEEPEARVPAQSESVRRPWEKNSTTLPRMKSSSSVTTSETQPCTPSSSDYSDLQRVKQELLEEVKKELQKVKEEIIEAFVQELRKRGSP [VASP]”, the thermal stability score in data set [1] (setting [5]) was determined as 0.605; in data set [1] (cell cycle stage: mitosis) it was 2.18. Moreover, in data set [2], the “solubility in G1/S (log2)” value is 0.466. Also, in data set [3], the “solubility change mitosis (log2)” value came to 0.0947. Moreover, the melting temperature in data set [4] (cell cycle stage: G1/S) came out at 49.7 °C; in data set [4] (cell cycle stage: mitosis) it was 50.4 °C.

With “MSEVTKNSLEKILPQLKCHFTWNLFKEDSVSRDLEDRVCNQIEFLNTEFKATMYNLLAYIKHLDGNNEAALECLRQAEELIQQEHADQAEIRSLVTWGNYAWVYYHLGRLSDAQIYVDKVKQTCKKFSNPYSIEYSELDCEEGWTQLKCGRNERAKVCFEKALEEKPNNPEFSSGLAIAMYHLDNHPEKQFSTDVLKQAIELSPDNQYVKVLLGLKLQKMNKEAEGEQFVEEALEKSPCQTDVLRSAAKFYRRKGDLDKAIELFQRVLESTPNNGYLYHQIGCCYKAKVRQMQNTGESEASGNKEMIEALKQYAMDYSNKALEKGLNPLNAYSDLAEFLETECYQTPFNKEVPDAEKQQSHQRYCNLQKYNGKSEDTAVQHGLEGLSISKKSTDKEEIKDQPQNVSENLLPQNAPNYWYLQGLIHKQNGDLLQAAKCYEKELGRLLRDAPSGIGSIFLSASELEDGSEEMGQGAVSSSPRELLSNSEQLN [IFIT3]”, the figures for the thermal stability score in data set [1] (setting [5]) and in data set [1] (cell cycle stage: mitosis) were -0.282 and 1.1, respectively. In data set [2], the “solubility in G1/S (log2)” value stood at 0.357. For the same sequence, the “solubility change mitosis (log2)” value in data set [3] is -0.0471. In addition, the values for the melting temperature in data set [4] (cell cycle stage: G1/S) and in data set [4] (cell cycle stage: mitosis) were 48.2 °C and 49 °C, respectively.

As for “MSEVTRSLLQRWGASFRRGADFDSWGQLVEAIDEYQILARHLQKEAQAQHNNSEFTEEQKKTIGKIATCLELRSAALQSTQSQEEFKLEDLKKLEPILKNILTYNKEFPFDVQPVPLRRILAPGEEENLEFEEDEEEGGAGAGSPDSFPARVPGTLLPRLPSEPGMTLLTIRIEKIGLKDAGQCIDPYITVSVKDLNGIDLTPVQDTPVASRKEDTYVHFNVDIELQKHVEKLTKGAAIFFEFKHYKPKKRFTSTKCFAFMEMDEIKPGPIVIELYKKPTDFKRKKLQLLTKKPLYLHLHQTLHKE [AIDA]”, the figures for the thermal stability score in data set [1] (setting [5]) and in data set [1] (cell cycle stage: mitosis) were -0.484 and -0.48, respectively. For the same sequence, the “solubility in G1/S (log2)” value in data set [2] amounted to 0.32. Besides, the “solubility change mitosis (log2)” value in data set [3] is 0.0508. The melting temperature in data set [4] (cell cycle stage: G1/S) was 50.9 °C; in data set [4] (cell cycle stage: mitosis), 50.5 °C.

For “MSFIDPYQHIIVEHQYSHKFTVVVLRATKVTKGAFGDMLDTPDPYVELFISTTPDSRKRTRHFNNDINPVWNETFEFILDPNQENVLEITLMDANYVMDETLGTATFTVSSMKVGEKKEVPFIFNQVTEMVLEMSLEVCSCPDLRFSMALCDQEKTFRQQRKEHIRESMKKLLGPKNSEGLHSARDVPVVAILGSGGGFRAMVGFSGVMKALYESGILDCATYVAGLSGSTWYMSTLYSHPDFPEKGPEEINEELMKNVSHNPLLLLTPQKVKRYVESLWKKKSSGQPVTFTDIFGMLIGETLIHNRMNTTLSSLKEKVNTAQCPLPLFTCLHVKPDVSELMFADWVEFSPYEIGMAKYGTFMAPDLFGSKFFMGTVVKKYEENPLHFLMGVWGSAFSILFNRVLGVSGSQSRGSTMEEELENITTKHIVSNDSSDSDDESHEPKGTENEDAGSDYQSDNQASWIHRMIMALVSDSALFNTREGRAGKVHNFMLGLNLNTSYPLSPLSDFATQDSFDDDELDAAVADPDEFERIYEPLDVKSKKIHVVDSGLTFNLPYPLILRPQRGVDLIISFDFSARPSDSSPPFKELLLAEKWAKMNKLPFPKIDPYVFDREGLKECYVFKPKNPDMEKDCPTIIHFVLANINFRKYRAPGVPRETEEEKEIADFDIFDDPESPFSTFNFQYPNQAFKRLHDLMHFNTLNNIDVIKEAMVESIEYRRQNPSRCSVSLSNVEARRFFNKEFLSKPKA [PLA2G4A]”, the values for the thermal stability score in data set [1] (setting [5]) and in data set [1] (cell cycle stage: mitosis) were 1.55 and 0.83, respectively. For the same sequence, the “solubility in G1/S (log2)” value in data set [2] is -0.0367. Also, the “solubility change mitosis (log2)” value in data set [3] is -0.0979. The values for the melting temperature in data set [4] (cell cycle stage: G1/S) and in data set [4] (cell cycle stage: mitosis) were 50.3 °C and 50.1 °C, respectively.

Turning to “MSFPKAPLKRFNDPSGCAPSPGAYDVKTLEVLKGPVSFQKSQRFKQQKESKQNLNVDKDTTLPASARKVKSSESKESQKNDKDLKILEKEIRVLLQERGAQDRRIQDLETELEKMEARLNAALREKTSLSANNATLEKQLIELTRTNELLKSKFSENGNQKNLRILSLELMKLRNKRETKMRGMMAKQEGMEMKLQVTQRSLEESQGKIAQLEGKLVSIEKEKIDEKSETEKLLEYIEEISCASDQVEKYKLDIAQLEENLKEKNDEILSLKQSLEENIVILSKQVEDLNVKCQLLEKEKEDHVNRNREHNENLNAEMQNLKQKFILEQQEREKLQQKELQIDSLLQQEKELSSSLHQKLCSFQEEMVKEKNLFEEELKQTLDELDKLQQKEEQAERLVKQLEEEAKSRAEELKLLEEKLKGKEAELEKSSAAHTQATLLLQEKYDSMVQSLEDVTAQFESYKALTASEIEDLKLENSSLQEKAAKAGKNAEDVQHQILATESSNQEYVRMLLDLQTKSALKETEIKEITVSFLQKITDLQNQLKQQEEDFRKQLEDEEGRKAEKENTTAELTEEINKWRLLYEELYNKTKPFQLQLDAFEVEKQALLNEHGAAQEQLNKIRDSYAKLLGHQNLKQKIKHVVKLKDENSQLKSEVSKLRCQLAKKKQSETKLQEELNKVLGIKHFDPSKAFHHESKENFALKTPLKEGNTNCYRAPMECQESWK [HMMR]”, the figures for the thermal stability score in data set [1] (setting [5]) and in data set [1] (cell cycle stage: mitosis) were -0.359 and -1.33, respectively. For the same sequence, the “solubility in G1/S (log2)” value in data set [2] was 0.497. Further, the “solubility change mitosis (log2)” value in data set [3] amounted to 0.189. Besides, the figures for the melting temperature in data set [4] (cell cycle stage: G1/S) and in data set [4] (cell cycle stage: mitosis) were 49.2 °C and 50.1 °C, respectively.

For the sequence “MSFSEMNRRTLAFRGGGLVTASGGGSTNNNAGGEASAWPPQPQPRQPPPPAPPALQPPNGRGADEEVELEGLEPQDLEASAGPAAGAAEEAKELLLPQDAGGPTSLGGGAGGPLLAERNRRTLAFRGGGGGGLGNNGSSRGRPETSVWPLRHFNGRGPATVDLELDALEGKELMQDGASLSDSTEDEEEGASLGDGSGAEGGSCSSSRRSGGDGGDEVEGSGVGAGEGETVQHFPLARPKSLMQKLQCSFQTSWLKDFPWLRYSKDTGLMSCGWCQKTPADGGSVDLPPVGHDELSRGTRNYKKTLLLRHHVSTEHKLHEANAQESEIPSEEGYCDFNSRPNENSYCYQLLRQLNEQRKKGILCDVSIVVSGKIFKAHKNILVAGSRFFKTLYCFSNKESPNQNNTTHLDIAAVQGFSVILDFLYSGNLVLTSQNAIEVMTVASYLQMSEVVQTCRNFIKDALNISIKSEAPESVVVDYNNRKPVNRDGLSSSRDQKIASFWATRNLTNLASNVKIENDGCNVDEGQIENYQMNDSSWVQDGSPEMAENESEGQTKVFIWNNMGSQGIQETGKTRRKNQTTKRFIYNIPPNNETNLEDCSVMQPPVAYPEENTLLIKEEPDLDGALLSGPDGDRNVNANLLAEAGTSQDGGDAGTSHDFKYGLMPGPSNDFKYGLIPGTSNDFKYGLIPGASNDFKYGLLPESWPKQETWENGESSLIMNKLKCPHCSYVAKYRRTLKRHLLIHTGVRSFSCDICGKLFTRREHVKRHSLVHKKDKKYKCMVCKKIFMLAASVGIRHGSRRYGVCVDCADKSQPGGQEGVDQGQDTEFPRDEEYEENEVGEADEELVDDGEDQNDPSRWDESGEVCMSLDD [ZBTB10]”, the thermal stability score in data set [1] (setting [5]) is -0.229; in data set [1] (cell cycle stage: mitosis), -0.231. In addition, the “solubility in G1/S (log2)” value in data set [2] was -0.114. In addition, the “solubility change mitosis (log2)” value in data set [3] is -0.0451. Also, the melting temperature in data set [4] (cell cycle stage: mitosis) was 53.4 °C.
